Here are results for one substance from patent US20190330359A1.

pKd: −log10 of the molar value.

The target in the assay is TNFR2 (human TNFR2, SEQ ID NO: 1) (human) (UniProt P20333). Nature of the assay: surface plasmon resonance (Pioneer SensiQ). In general terms: In SPR one partner is held on a chip, and binding of the other changes the refractive index at the surface.
Chain of UniProt P20333 (P20333 23-257 limits assumed): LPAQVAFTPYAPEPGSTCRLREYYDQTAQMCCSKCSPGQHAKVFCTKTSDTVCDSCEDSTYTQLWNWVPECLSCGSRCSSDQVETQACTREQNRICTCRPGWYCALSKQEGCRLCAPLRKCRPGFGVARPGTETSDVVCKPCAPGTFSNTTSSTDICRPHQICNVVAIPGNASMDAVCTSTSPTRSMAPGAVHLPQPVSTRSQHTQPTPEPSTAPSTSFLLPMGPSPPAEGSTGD

Substance “Clone MAB726 (R&D Systems, Inc.) anti-TNFR2 antagonist monoclonal antibody” had a pKd of 9.21.

In general, pKd refers to −log10 of the Kd, conventionally taken in molar units.
